Test results as given in article PMC12118636.
Where two headings read alike, the source gives them in different places.

Columns and labels:
[1] = biological target: hNaV1.9 IQ domain peptide (human); assay: ITC
[2] = biological target: hNaV1.9 IQ domain peptide (human); assay: ITC; remark: listed apart in the source

Kd [1]: 37 µM
Kd [2]: 480 µM
Substance: Human calmodulin (from UniProt P0DP23 1-149) (natural protein)
